Measurements: patent US20160185837A1 (Medimmune Limited, priority 2013, published 2016)
Where a chain is given by its changes, count along the chain named.

T1: human GIP receptor (hGIPr) (Homo sapiens, UniProt P48546)
T1 construct: expressed in transfected cells
T1 sequence (P48546 22-466): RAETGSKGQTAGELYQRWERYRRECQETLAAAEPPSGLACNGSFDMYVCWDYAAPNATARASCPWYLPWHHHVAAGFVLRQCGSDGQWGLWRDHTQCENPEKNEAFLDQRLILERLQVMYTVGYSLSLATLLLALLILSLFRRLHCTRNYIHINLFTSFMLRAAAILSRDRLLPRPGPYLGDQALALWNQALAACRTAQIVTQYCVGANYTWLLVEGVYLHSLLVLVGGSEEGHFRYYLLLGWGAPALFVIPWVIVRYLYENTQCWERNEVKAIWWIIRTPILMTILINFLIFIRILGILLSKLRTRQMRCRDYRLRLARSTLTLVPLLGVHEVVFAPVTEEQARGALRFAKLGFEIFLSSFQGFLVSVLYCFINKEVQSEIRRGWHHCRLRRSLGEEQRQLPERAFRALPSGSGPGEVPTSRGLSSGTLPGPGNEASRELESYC

B1: IP197 (protein)
chain: YSEGTFTSDVSSYMERQAIDEFIAWLLAGAAAGGSGSTASSGSGSATGGGGAATHTCPPCPAPEF
modifications: /note=“Description of Artificial Sequence Synthetic Peptide-linker-hinge polypeptide”
B2: IP208: isolated polypeptide named in b21; sequence stands in a table not shown here (protein)
chain: B1 chain with M14L, R16G, I19A, D20K
modifications: /note=“Description of Artificial Sequence Synthetic Peptide-linker-hinge polypeptide”
B3: IP230 (protein)
chain: B1 chain with Y1H, S2G, M14L, R16G, I19A, D20K, L27V, A28K
modifications: /note=“Description of Artificial Sequence Synthetic Peptide-linker-hinge polypeptide”
B4: IP171: Fc fusion, IgG1-TM, SEQ ID NO:142; agonist peptide YSEGTFTSDVSSYMERQAISEFIAWLLAG (protein)
chain: B1 chain with D20S
modifications: also: Fc fusion, IgG1-TM
notes: agonist peptide YSEGTFTSDVSSYMERQAISEFIAWLLAG
B5: IP173: isolated polypeptide named in b21; sequence stands in a table not shown here (protein)
chain: B1 chain with M14L, R16E, I19A, D20K
modifications: /note=“Description of Artificial Sequence Synthetic Peptide-linker-hinge polypeptide”
B6: IP187 (protein)
chain: HGEGTFTSDVSSYLEGQAAKEFIAWLVKGAPPGGGGGSGGGGSGGGGSGGGGSATHTCPPCPAPEF
modifications: /note=“Description of Artificial Sequence Synthetic Peptide-linker-hinge polypeptide”
B7: IP204: isolated polypeptide named in b21; sequence stands in a table not shown here (protein)
chain: HGEGTFISDYSIAMDKIHQQDFVNWLLAQKAAAGGSGSTASSGSGSATGGGGAATHTCPPCPAPEF
modifications: /note=“Description of Artificial Sequence Synthetic Peptide-linker-hinge polypeptide”
B8: IP132 (protein)
chain: HGEGTFTSDVSSYLEGQAAKEFIAWLVKGGGGGGSGGGGSGGGGSGGGGSATHTCPPCPAPEF
modifications: /note=“Description of Artificial Sequence Synthetic Peptide-linker-hinge polypeptide”
B9: IP224 (protein)
chain: YSEGTFTSDVSSYMERQAIDEFIAWLLGGGAAAGGSGSTASSGSGSATGGGGAATHTCPPCPAPEF
modifications: /note=“Description of Artificial Sequence Synthetic Peptide-linker-hinge polypeptide”
B10: IP176: Fc fusion, IgG1-TM, SEQ ID NO:143; agonist peptide YSEGTFTSDVSSYMERQAISEFIAWLLKGP (protein)
chain: B9 chain with D20S, G28K, G30P
modifications: also: Fc fusion, IgG1-TM
notes: agonist peptide YSEGTFTSDVSSYMERQAISEFIAWLLKGP
B11: IP150: isolated polypeptide named in b21; sequence stands in a table not shown here (protein)
chain: B9 chain with M14L, R16G, I19A, D20K, L27V, G28A, A32P, A33P
modifications: /note=“Description of Artificial Sequence Synthetic Peptide-linker-hinge polypeptide”
B12: IP174: isolated polypeptide named in b21; sequence stands in a table not shown here (protein)
chain: HGEGTFTSDVSSYLEEEAAKEFIAWLVAGGAAAGGSGSTASSGSGSATGGGGAATHTCPPCPAPEF
modifications: /note=“Description of Artificial Sequence Synthetic Peptide-linker-hinge polypeptide”
B13: IP191 (protein)
chain: HGEGTFTSDVSSYLEGQAAKEFIAWLVKGAAAGGSGSTASSGSGSATGGGGAATYTCPPCPAPEF
modifications: /note=“Description of Artificial Sequence Synthetic Peptide-linker-hinge polypeptide”
B14: IP192 (protein)
chain: B13 chain with Y55S
modifications: /note=“Description of Artificial Sequence Synthetic Peptide-linker-hinge polypeptide”
B15: IP199: isolated polypeptide named in b21; sequence stands in a table not shown here (protein)
chain: B13 chain with V27L, K28A, Y55H
modifications: /note=“Description of Artificial Sequence Synthetic Peptide-linker-hinge polypeptide”
B16: IP233 (protein)
chain: B13 chain with G16E, Y55H
modifications: /note=“Description of Artificial Sequence Synthetic Peptide-linker-hinge polypeptide”
B17: IP194 (protein)
chain: HGEGTFTSDVSSYLEGQAAKEFIAWLVKGAAAGGSGSTASSGSGSATGGGGPPCPPCPAPEF
modifications: /note=“Description of Artificial Sequence Synthetic Peptide-linker-hinge polypeptide”
B18: IP195 (protein)
chain: HGEGTFTSDVSSYLEGQAAKEFIAWLVKGAAAGGSGSTASSGSGSATGGGGESKYGPPCPPCPAPEF
modifications: /note=“Description of Artificial Sequence Synthetic Peptide-linker-hinge polypeptide”
B19: IP227 (protein)
chain: B9 chain with I23V, A24N, W25D, G28K
modifications: /note=“Description of Artificial Sequence Synthetic Peptide-linker-hinge polypeptide”

target: T1, human GIP receptor (hGIPr); test: BSA-cAMP assay, cells expressing human GIP receptor; format: cell-based; conditions: BSA-cAMP assay; batch 1 unless a batch is given; read-out: cAMP activity hGIPr (EC50)
Description: For human GIPr, two different lines were used, shown as “hGIPr” and “hGIPr (C3)” in Table 11.
(§1) One basic cAMP assays was performed, differing in the medium used for the assay, the “BSA-cAMP assay”:
(§2) BSA-based assay medium: 0.1% bovine serum albumin (BSA) in
(§3) In certain aspects, the assay can also be carried out in medium supplemented with serum albumin that corresponds to the receptor being tested, e.g., human serum albumin for testing cAMP activity at hGIPr or hGLP-1r, rat serum albumin for testing cAMP activity at rGIPr or rGLP-1r, and so on. […] All sample dilutions were made in duplicate.
(§4) A frozen cryo-vial of cells expressing the receptor of interest was thawed rapidly in a water-bath, transferred to pre-warmed assay media and spun at 240×g for 5 minutes. Cells were re-suspended in assay buffer at an optimized concentration (e.g., hGLP-1r and hGIPr cells at 0.5×10^5 cells/ml).
(§5) To this, 5 μL cell suspension was added and the plates incubated at room temperature for 30 minutes.
(§6) cAMP levels were measured using a commercially available cAMP dynamic 2 HTRF kit (Cisbio, Cat #62AM4PEJ), following the two step protocol as per manufacturer's recommendations. In brief; anti-cAMP cryptate (donor fluorophore) and cAMP-d2 (acceptor fluorophore) were made up separately by diluting each 1/20 in conjugate & lysis buffer provided in the kit. 5 μL anti-cAMP cryptate was added to all wells of the assay plate, and 5 μL cAMP-d2 added to all wells except non-specific binding (NSB) wells, to which conjugate and lysis buffer was added. […] Data was transformed to % Delta F as described in manufacturer's guidelines and then transformed to percent activation of maximal native agonist response and analysed by 4-parameter logistic fit to determine EC50 values.
(§7) We used unconstrained 4 parameter logistic fit of data, curve mid-point to determine EC50. This was tested on two occasions, not two batches.

EC50 [nM]	Molecule
0.18	B1
17	B2
> 15000	B3
0.39	B4
1.2	B5
540	B6
0.12	B7
81	B8
0.35	B9
0.42	B10
16	B11
460	B12

target: T2, human GLP-1 receptor (hGLP-1r) (Homo sapiens, UniProt P43220); test: BSA-cAMP assay, cells expressing human GLP-1 receptor; format: cell-based; conditions: BSA-cAMP assay; batch 1 unless a batch is given; read-out: cAMP activity hGLP1r (EC50)
T2 construct: expressed in transfected cells
T2 sequence (P43220 24-463): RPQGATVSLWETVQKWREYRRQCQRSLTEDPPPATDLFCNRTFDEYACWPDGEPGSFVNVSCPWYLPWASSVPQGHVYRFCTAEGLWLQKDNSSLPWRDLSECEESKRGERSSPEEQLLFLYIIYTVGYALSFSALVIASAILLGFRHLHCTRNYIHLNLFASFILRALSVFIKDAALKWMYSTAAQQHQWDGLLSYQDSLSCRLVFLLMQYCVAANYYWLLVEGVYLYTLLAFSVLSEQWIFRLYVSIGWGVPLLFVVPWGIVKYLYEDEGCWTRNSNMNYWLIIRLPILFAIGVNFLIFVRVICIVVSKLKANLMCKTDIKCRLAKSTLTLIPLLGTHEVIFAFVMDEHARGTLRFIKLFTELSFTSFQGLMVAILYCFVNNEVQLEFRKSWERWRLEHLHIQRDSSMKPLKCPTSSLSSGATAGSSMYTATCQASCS
Description: as §1, §2, §3, §4, §5, §6, §7

EC50 [nM]	Molecule
0.057	B13
0.043	B14
0.78	B1
1.6	B2
0.056	B3
0.069	B15
0.53	B4
0.036	B16
0.23	B5
0.037	B6
0.061	B17
850	B7
0.061	B18
0.04	B8
48	B19
0.57	B9
0.6	B10
0.033	B11
0.032	B12
